Results taken from patent publication US20220331423A1 (WISTAR INSTITUTE OF ANATOMY AND BIOLOGY, published 2022).

Molecular target: T1, HSV-1 glycoprotein D (gD), non-fused, expressed from AdC68gD (HSV-1, UniProt Q05059 26-394)
T1 construct: Complete gD open reading frame (from pRE4) expressed in AdC68gD-infected cells; Tested as detergent cell extract (ELISA) or on and within infected cells; also called native gD; non-fused gD
Assay: confocal microscopy of AdC68gD-infected B78-H1/3E5 (human HVEM-EGFP) cells stained with MAb to gD

T1 sequence (Q05059 26-394): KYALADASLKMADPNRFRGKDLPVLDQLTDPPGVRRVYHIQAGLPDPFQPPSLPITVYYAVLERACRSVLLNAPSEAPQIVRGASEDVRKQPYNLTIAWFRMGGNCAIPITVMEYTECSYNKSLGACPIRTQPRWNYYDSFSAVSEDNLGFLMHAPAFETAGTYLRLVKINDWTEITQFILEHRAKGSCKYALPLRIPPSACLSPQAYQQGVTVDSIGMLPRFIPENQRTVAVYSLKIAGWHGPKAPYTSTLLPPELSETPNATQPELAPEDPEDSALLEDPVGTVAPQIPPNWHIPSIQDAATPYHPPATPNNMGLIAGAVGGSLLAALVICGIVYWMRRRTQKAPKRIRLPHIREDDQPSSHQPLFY

B1: human HVEM fused to Enhanced Green Fluorescence Protein, expressed on B78H1/3E5 cells (receptor)
chain: LPSCKEDEYPVGSECCPKCSPGYRVKEACGELTGTVCEPCPPGTYIAHLNGLSKCLQCQMCDPAMGLRASRNCSRTENAVCGCSPGHFCIVQDGDHCAACRAYATSSPGQRVQKGGTESQDTLCQNCPPGTFSPNGTLEECQHQTKCSWLVTKAGAGTSSSHWVWWFLSGSLVIVIVCSTVGLIICVKRRKPRGDVVKVIVSVQRKRQEAEGEATVIEALQAPPDVTTVAVEETIPSFTGRSPNH
notes: whole, on cells; Mouse melanoma cells B78H1/3E5; also called HVEM-EGFP; HVEM on B78-H1/3E5 cells; not shown: Enhanced Green Fluorescence Protein (EGFP)
binding result: binds
